Data taken from publication PMC6426777.
pKd: −log10 of the molar value. Each block holds one substance with its values, some of them ahead of it.

Legend:
[1] = target: recombinant C1q Lys^A200Asp-Lys^A201Asp mutant (human) (UniProt P02745); experiment: SPR; Biacore 3000, 25°C; C1q variants immobilised on CM5 chips by amine coupling; partners injected at 20 μl/min in 50 mM Tris-HCl, 150 mM NaCl, 2 mM CaCl2, 0.005% surfactant P20, pH 7.4; BSA reference surface; global fit to 1:1 Langmuir model; apparent KD = kd/ka
Chain of recombinant C1q Lys^A200Asp-Lys^A201Asp mutant (human) (P02745 other isoform, or with tags, fused parts or gaps mutant, chain 1 of 3): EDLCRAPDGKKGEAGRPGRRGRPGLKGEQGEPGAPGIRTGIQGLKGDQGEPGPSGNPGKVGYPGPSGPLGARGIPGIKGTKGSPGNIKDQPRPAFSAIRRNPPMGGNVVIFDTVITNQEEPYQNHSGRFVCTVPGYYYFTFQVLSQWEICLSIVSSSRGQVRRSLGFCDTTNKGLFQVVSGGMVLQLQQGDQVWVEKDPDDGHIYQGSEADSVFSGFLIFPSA
Chain of recombinant C1q Lys^A200Asp-Lys^A201Asp mutant (human) (P02746 28-253, stated change not applied, chain 2 of 3, further chain): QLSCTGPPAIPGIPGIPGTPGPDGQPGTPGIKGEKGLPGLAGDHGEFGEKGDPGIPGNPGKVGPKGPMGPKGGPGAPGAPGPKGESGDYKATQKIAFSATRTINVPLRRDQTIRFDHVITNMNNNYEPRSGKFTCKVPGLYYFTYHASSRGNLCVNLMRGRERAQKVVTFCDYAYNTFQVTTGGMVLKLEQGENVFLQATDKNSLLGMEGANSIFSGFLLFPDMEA
Chain of recombinant C1q Lys^A200Asp-Lys^A201Asp mutant (human) (P02747 29-245, stated change not applied, chain 3 of 3, further chain): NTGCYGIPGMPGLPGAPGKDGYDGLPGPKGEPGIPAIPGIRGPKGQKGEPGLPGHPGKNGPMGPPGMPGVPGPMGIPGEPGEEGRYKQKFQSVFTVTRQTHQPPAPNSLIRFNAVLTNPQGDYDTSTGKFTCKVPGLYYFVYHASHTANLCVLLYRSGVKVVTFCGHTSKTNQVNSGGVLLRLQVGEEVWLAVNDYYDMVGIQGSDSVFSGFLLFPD

[2] = target: recombinant C1q Lys^C170Glu mutant (human) (UniProt P02745); experiment: as above
Chain of recombinant C1q Lys^C170Glu mutant (human) (P02745 23-245, change not shown, chain 1 of 3): as the sequence (P02745 other isoform, or with tags, fused parts or gaps mutant, chain 1 of 3) above, with D200K, D201K counted along it
Chain of recombinant C1q Lys^C170Glu mutant (human) (P02746 28-253, change not shown, chain 2 of 3, further chain): as the sequence (P02746 28-253, stated change not applied, chain 2 of 3, further chain) above
Chain of recombinant C1q Lys^C170Glu mutant (human) (P02747 other isoform, or with tags, fused parts or gaps mutant, chain 3 of 3, further chain): as the sequence (P02747 29-245, stated change not applied, chain 3 of 3, further chain) above, with K170E counted along it

[3] = target: recombinant wild-type C1q (human) (UniProt P02745); experiment: as above
Chain of recombinant wild-type C1q (human) (P02745 23-245, chain 1 of 3): as the sequence (P02745 other isoform, or with tags, fused parts or gaps mutant, chain 1 of 3) above, with D200K, D201K counted along it
Chain of recombinant wild-type C1q (human) (P02746 28-253, chain 2 of 3, further chain): as the sequence (P02746 28-253, stated change not applied, chain 2 of 3, further chain) above
Chain of recombinant wild-type C1q (human) (P02747 29-245, chain 3 of 3, further chain): as the sequence (P02747 29-245, stated change not applied, chain 3 of 3, further chain) above

[4] = target: recombinant human PTX3 (D at position 48) from CHO cells (human) (UniProt P26022)
[5] = target: recombinant human PTX3 D48 allelic variant from HEK293 (human) (UniProt P26022); experiment: non-reducing SDS-PAGE; purified PTX3 on Tris acetate 3-8% gels without dithiothreitol, silver stain; disulfide-linked oligomers
[6] = target: recombinant C1q Tyr^B175Leu mutant (human) (UniProt P02745); experiment: SPR; Biacore 3000, 25°C; C1q variants immobilised on CM5 chips by amine coupling; partners injected at 20 μl/min in 50 mM Tris-HCl, 150 mM NaCl, 2 mM CaCl2, 0.005% surfactant P20, pH 7.4; BSA reference surface; global fit to 1:1 Langmuir model; apparent KD = kd/ka
Chain of recombinant C1q Tyr^B175Leu mutant (human) (P02745 23-245, stated change not applied, chain 1 of 3): as the sequence (P02745 other isoform, or with tags, fused parts or gaps mutant, chain 1 of 3) above, with D200K, D201K counted along it
Chain of recombinant C1q Tyr^B175Leu mutant (human) (P02746 other isoform, or with tags, fused parts or gaps mutant, chain 2 of 3, further chain): as the sequence (P02746 28-253, stated change not applied, chain 2 of 3, further chain) above, with Y175L counted along it
Chain of recombinant C1q Tyr^B175Leu mutant (human) (P02747 29-245, stated change not applied, chain 3 of 3, further chain): as the sequence (P02747 29-245, stated change not applied, chain 3 of 3, further chain) above

[7] = target: recombinant human PTX3 A48 allelic variant from HEK293 (human) (UniProt P26022); experiment: non-reducing SDS-PAGE; purified PTX3 on Tris acetate 3-8% gels without dithiothreitol, silver stain; disulfide-linked oligomers

Substance: human IgM (antibody)
pKd [1]: 8.48
koff [1]: 0.00206 s⁻¹
kon [1]: 717000 M⁻¹ s⁻¹
pKd [2]: 8.61
koff [2]: 0.00167 s⁻¹
kon [2]: 681000 M⁻¹ s⁻¹
pKd [6]: 9.05
koff [6]: 0.00131 s⁻¹
kon [6]: 1.47e+06 M⁻¹ s⁻¹
pKd [3]: 8.72
koff [3]: 0.00154 s⁻¹
kon [3]: 919000 M⁻¹ s⁻¹

Substance: recombinant C1q Arg^B108Asp-Arg^B109Glu mutant (from UniProt P02745 23-245; P02746 28-253; P02747 29-245) (complex)
IgM-dependent complement activation: C4b deposition in IgM-coated wells, C1q-depleted serum reconstituted with the C1q variant (4 μg/ml) (% of the signal obtained with C1qWT) (human IgM (human)): 9
PTX3-dependent complement activation: C4b deposition in PTX3-coated wells, C1q-depleted serum reconstituted with the C1q variant (4 μg/ml) (% of the signal obtained with C1qWT) [4]: 30

Substance: recombinant C1s-C1r-C1r-C1s tetramer (complex)
pKd [2]: 8.28
koff [2]: 0.00256 s⁻¹
kon [2]: 486000 M⁻¹ s⁻¹
pKd [6]: 8.17
koff [6]: 0.00297 s⁻¹
kon [6]: 440000 M⁻¹ s⁻¹
pKd [3]: 8.20
koff [3]: 0.00288 s⁻¹
kon [3]: 435000 M⁻¹ s⁻¹

Now from value to substance:

pKd [1]: 8.11
koff [1]: 0.000634 s⁻¹
kon [1]: 98300 M⁻¹ s⁻¹
pKd [2]: 7.96
koff [2]: 0.00152 s⁻¹
kon [2]: 140000 M⁻¹ s⁻¹
pKd [3]: 8.25
koff [3]: 0.000859 s⁻¹
kon [3]: 155000 M⁻¹ s⁻¹
Substance: recombinant human PTX3 (D at position 48) from CHO cells (from UniProt P26022 18-381) (natural protein)

PTX3-dependent complement activation: C4b deposition in PTX3-coated wells, C1q-depleted serum reconstituted with the C1q variant (4 μg/ml) [4]: 163 % of C1qWT
Substance: recombinant C1q Lys^A200Asp-Lys^A201Asp mutant (from UniProt P02745 23-245; P02746 28-253; P02747 29-245) (complex)

stoichiometry N [5]: 8
Substance: recombinant human PTX3 D48 allelic variant from HEK293 (from UniProt P26022 18-381) (natural protein)

IgM-dependent complement activation: C4b deposition in IgM-coated wells, C1q-depleted serum reconstituted with the C1q variant (4 μg/ml) (% of the C1qWT value) (human IgM (human)): 61.4
PTX3-dependent complement activation: C4b deposition in PTX3-coated wells, C1q-depleted serum reconstituted with the C1q variant (4 μg/ml) (% of the C1qWT value) [4]: 44.5
Substance: recombinant C1q Tyr^B175Leu mutant (from UniProt P02745 23-245; P02746 28-253; P02747 29-245) (complex)

stoichiometry N [7]: 8
Substance: recombinant human PTX3 A48 allelic variant from HEK293 (from UniProt P26022 18-381) (natural protein)
